Experimental findings from patent US20060183886A1 are described below.

The test has as its target asialoglycoprotein receptor on Hep G2 cells (human (Hep G2 cells)) (UniProt P07306). Put plainly: cell-based or functional assay.
Sequence of UniProt P07306 (P07306 whole entry): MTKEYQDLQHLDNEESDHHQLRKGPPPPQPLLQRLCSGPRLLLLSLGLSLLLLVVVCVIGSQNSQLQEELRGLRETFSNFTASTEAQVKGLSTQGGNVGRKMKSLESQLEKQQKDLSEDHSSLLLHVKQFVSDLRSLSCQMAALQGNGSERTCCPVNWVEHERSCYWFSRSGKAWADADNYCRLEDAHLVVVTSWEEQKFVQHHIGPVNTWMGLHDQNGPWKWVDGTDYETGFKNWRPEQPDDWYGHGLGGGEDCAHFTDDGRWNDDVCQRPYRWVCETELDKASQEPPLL

For [YEE(ah-GalNAc)3]-SMCC-AET-pU^mpT7, the cell association (uptake) by Hep G2 cells, 1 uM conjugate alone, 37 C, two hours (pmol per 10^6 cells) was 7.8; the cell association (uptake) by Hep G2 cells, 1 uM conjugate with a 100-fold excess of free 5, 37 C, two hours (pmol per 10^6 cells) was 0.42; the uptake by Hep G2 cells, 1 uM conjugate, 37 C, about 24 hours (pmol per 10^6 cells) came out at 26.6.
